Experimental findings from patent publication US20240034757A1 are described below.

This assay concerns the target CXCL9_HUMAN (human) (UniProt Q07325). In words: yeast surface display FACS re-test.

CXCL9_HUMAN (human), sequence (Q07325 23-125 limits assumed): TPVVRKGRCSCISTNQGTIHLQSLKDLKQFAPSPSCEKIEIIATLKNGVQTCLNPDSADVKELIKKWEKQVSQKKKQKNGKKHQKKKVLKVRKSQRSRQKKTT

B1: P1126_AMBCA (protein)
chain: KPQILQRTDKSTDSEWDPQTCPETCIPSKNITCSDGCVCVKLGEEEEGTCFNMTGVDWLGSPSDD
Molecule B1 yielded a % cells over threshold fluorescence of 56%.
